This is an account of results in publication PMC12246787.

The assay concerns the target FcγRIIIa receptor immobilised on the TSKgel FcR-IIIA-NPR column (UniProt P08637). Put plainly: FcγRIIIa affinity chromatography; FcγRIIIa immobilised on a TSKgel FcR-IIIA-NPR column (4.6 x 75 mm); antibody injected (20 µL); 0.05 M sodium citrate, 0.150 M NaCl, 10 min at pH 6.5, then linear gradient to pH 4.5 in 40 min; 0.375 mL/min; 20°C; UV 280 nm; eluting peaks collected and their glycoforms assigned by HILIC-MS.
UniProt P08637, sequence (P08637 17-208): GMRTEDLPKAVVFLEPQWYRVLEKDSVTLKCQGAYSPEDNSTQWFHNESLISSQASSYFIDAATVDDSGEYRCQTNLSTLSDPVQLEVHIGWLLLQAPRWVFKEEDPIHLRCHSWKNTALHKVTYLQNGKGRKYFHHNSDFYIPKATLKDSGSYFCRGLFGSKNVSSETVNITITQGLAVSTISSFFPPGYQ

Regarding “rituximab produced in wild-type N. benthamiana agroinfiltrated in the presence of the kifunensine mannosidase I inhibitor (antibody)”, the RT (min) on the FcγRIIIa column, peak #1 (Man8 14%, Man9 86%) was 24.9 min.
As to “rituximab produced in glycoengineered ΔXF N. benthamiana plants (antibody)”, the RT (min) on the FcγRIIIa column, peak #1 (G0 100%) worked out at 30.5 min.
As for “commercial rituximab (MabThera) produced in CHO cells (antibody)”, the RT (min) on the FcγRIIIa column, peak #1 (G0F 74%, G1F 25%) came to 22.9 min; the RT (min) on the FcγRIIIa column, peak #2 (G0F 43%, G1F 43%, G2F 14%) was 28.2 min; the RT (min) on the FcγRIIIa column, peak #3 (G1F 72%, G2F 28%) worked out at 33.2 min.
With “rituximab produced in wild-type N. benthamiana, G0 glycoform (antibody)”, the RT (min) on the FcγRIIIa column, peak #1 (G0 100%) turned out to be 30.3 min.
